In patent US20240280570A1:
Where two headings read alike, the source gives them in different places.

Key:
[1] = target: SARS-CoV-2 S1 (Sino Biological 40591-V08B1); Spike Protein S1 subunit residues 1 - 685(R) His tagged (SARS-CoV-2) (UniProt P0DTC2)
[2] = target: SARS-CoV-2 S1 (Sino Biological 40591-V08B1); Spike Protein S1 subunit residues 1 - 685(R) His tagged (SARS-CoV-2) (UniProt P0DTC2); remark: listed apart in the source
[3] = target: SARS-CoV-2 S1 (Sino Biological 40591-V08B1); Spike Protein S1 subunit residues 1 - 685(R) His tagged (SARS-CoV-2) (UniProt P0DTC2); remark: listed apart in the source
[4] = target: SARS-CoV-2 S1 (Sino Biological 40591-V08B1); Spike Protein S1 subunit residues 1 - 685(R) His tagged (SARS-CoV-2) (UniProt P0DTC2); assay: OECT sensor, PEDOT:PSS channel, nanobody on gate, target in buffer
[5] = target: SARS-CoV-2 S1 (Sino Biological 40591-V08B1); Spike Protein S1 subunit residues 1 - 685(R) His tagged (SARS-CoV-2) (UniProt P0DTC2); assay: method not stated at this place (SPR of viral targets is described in paragraph 219)
MCA-SpyTag peptide [6] = target: MCA-SpyTag peptide
[7] = target: SARS-CoV-2 S1 (Sino Biological 40591-V08B1); Spike Protein S1 subunit residues 1 - 685(R) His tagged (SARS-CoV-2) (UniProt P0DTC2); remark: listed apart in the source
MCA-SpyTag peptide [8] = assay: QCM-D, SpyTag peptide on HDT-coated gold, without BSA (data not shown)
[9] = target: SARS-CoV-1 RBD (Sino Biological 40150-V08B2); Spike Receptor Binding Domain residues R306 - F527 His tagged (SARS-CoV-1) (UniProt P59594); assay: OECT sensor, PEDOT:PSS channel, nanobody on gate, target in buffer
[10] = target: SARS-CoV-1 RBD (Sino Biological 40150-V08B2); Spike Receptor Binding Domain residues R306 - F527 His tagged (SARS-CoV-1) (UniProt P59594)

Substance	LOD [1]	normalized response (NR) [2]	LOD [3]	LOD [4]	Kd [5]	mass density bound (QCM-D) (MCA-SpyTag peptide [6])	LOD [7]	mass density bound (QCM-D) (MCA-SpyTag peptide [8])	molecules bound per cm2 (QCM-D) (nanobodies per cm^2) (MCA-SpyTag peptide [8])	LOD [9]	LOD [10]
VHH72-8 aa-spyCatcher-3C cleavage site-His8	0.019 pM	30%	1.2e-09 pM	0.00028 pM	23 nM	430 ng cm-2	1.8e-08 pM	407 ng cm-2	8.4e+12	–	–
VHH72-8 aa-spyCatcher-3C cleavage site-His8 (VHH; other documents disagree on this pair)	–	–	–	–	–	–	–	–	–	0.0015 pM	1.6e-05 pM
